Test results as given in IntAct's records for PubMed 16287128.

B1: Matrilin-3 (Homo sapiens), O15232 (parent)
chain: MPRPAPARRLPGLLLLLWPLLLLPSAAPDPVARPGFRRLETRGPGGSPGRRPSPAAPDGAPASGTSEPGRARGAGVCKSRPLDLVFIIDSSRSVRPLEFTKVKTFVSRIIDTLDIGPADTRVAVVNYASTVKIEFQLQAYTDKQSLKQAVGRITPLSTGTMSGLAIQTAMDEAFTVEAGAREPSSNIPKVAIIVTDGRPQDQVNEVAARAQASGIELYAVGVDRADMASLKMMASEPLEEHVFYVETYGVIEKLSSRFQETFCALDPCVLGTHQCQHVCISDGEGKHHCECSQGYTLNADKKTCSALDRCALNTHGCEHICVNDRSGSYHCECYEGYTLNEDRKTCSAQDKCALGTHGCQHICVNDRTGSHHCECYEGYTLNADKKTCSVRDKCALGSHGCQHICVSDGAASYHCDCYPGYTLNEDKKTCSATEEARRLVSTEDACGCEATLAFQDKVSSYLQRLNTKLDDILEKLKINEYGQIHR
partner: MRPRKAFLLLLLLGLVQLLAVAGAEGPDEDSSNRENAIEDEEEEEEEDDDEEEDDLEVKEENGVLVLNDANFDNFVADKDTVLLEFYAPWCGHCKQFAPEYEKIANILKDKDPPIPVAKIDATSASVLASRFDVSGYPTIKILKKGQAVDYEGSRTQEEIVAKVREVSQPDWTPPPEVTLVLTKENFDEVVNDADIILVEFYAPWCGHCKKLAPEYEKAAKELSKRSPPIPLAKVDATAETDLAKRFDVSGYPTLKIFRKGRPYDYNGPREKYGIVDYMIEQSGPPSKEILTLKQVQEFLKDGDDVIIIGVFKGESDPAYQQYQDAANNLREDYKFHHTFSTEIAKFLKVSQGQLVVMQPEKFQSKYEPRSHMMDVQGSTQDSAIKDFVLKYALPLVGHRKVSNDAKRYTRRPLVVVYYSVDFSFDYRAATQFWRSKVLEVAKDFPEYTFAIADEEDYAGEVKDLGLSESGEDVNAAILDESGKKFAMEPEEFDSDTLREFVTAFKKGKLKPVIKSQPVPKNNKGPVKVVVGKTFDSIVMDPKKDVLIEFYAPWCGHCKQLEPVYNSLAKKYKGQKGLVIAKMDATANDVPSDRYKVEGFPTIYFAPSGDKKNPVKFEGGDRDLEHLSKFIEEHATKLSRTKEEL

Variants of: B1
Conditions: with pdia4_human PDIA4, P13667

| Variant | effect of a mutation on the interaction |
| --- | --- |
| R121W | causing an interaction |
| A219D | causing an interaction |
| V194D | causing an interaction |
| E252K | with no effect |
